Measured values: the DeepSol protein solubility set

Assay: soluble on expression in E. coli; label from the status in PepcDB or PDB records

Sequence	soluble on expression in E. coli
GKENDAGDIVEKFDPTEAQSVEVQDERPETTIGRGKPTDEVVLLSEAHRPEEKMAAYEDEHGTYIMNSKDLRAVQHVERLTKMGVHSLKIEGRTKSFYYCARTAQVYRKAIDDAVAGKPFDESLMGTLESLAHRGYTEGFLRRHTHDTYQNYDYGYSVSDAQQFVGEFTGKRRGDMAEVEVKNKFVVGDSLELMTPKGNVVFTLEAMENRKSESIEDAKGNGHFVFIPVPEDMDLEYGLLMRNLNAGQDTRNPTGK	not soluble
MGSDKIHHHHHHMTKKITTHLESGLFKGKPRQKTVQHRNATTTPEMRQFIQQSDYSVSQLSKILNISEATVRKWRKRDSIDNTPNTPHKLNTTLSPMEEYVMLGLRYQLKMPLDRLLKVTQEFINPNVSRSGLARCLKRFGVSKLDEFDSPFVPEKFFNQLPITQGADIQTYTVNPKTLADTLSLPSPDPDNVVQVVSLSIPPQLTKQQAYSVLLGVDFKSDWVYLDIYQDSHTQASNRYITHVLKHGPFHLRKLLVRNYHTFLARFPGASQPAAVSTSTIDAAGSQHQITEPQLSNGDSYEPIQ	not soluble
MAKEINLTGEEVVALAAKYMNETDAAFVKKALDYATAAHFYQVRKSGEPYIVHPIQVAGILADLHLDAVTVACGFLHDVVEDTDITLDNIEFDFGKDVRDIVDGVTKLGKVEYKSHEEQLAENHRKMLMAMSKDIRVILVKLADRLHNMRTLKHLRKDKQERISRETMEIYAPLAHRLGISRIKWELEDLAFRYLNETEFYKISHMMNEKRREREALVDDIVTKIKSYTTEQGLFGDVYGRPKHIYSIYRKMRDKKKRFDQIFDLIAIRCVMETQSDVYAMVGYIHELWRPMPGRFKDYIAAPKANGYQSIHTTVYGPKGPIEIQIRTKEMHQVAEYGVAAHWAYKKGVRGKVNQAEQKVGMNWIKELVELQDASNGDAVDFVDSLEHHHHHH	soluble
MQTKNKQGVLLVNLGTPDEPTAPAVKRFLSQFLHDHRVVDMTRWLWCPILHGVILPIRSPKVAKLYESVWMEEGSPLMVYSKRQAKKLAQHLDMPVELGMTYGNPSLQSGFEALIAQGVEEVIVLPLYPQYSGTTTAAVSDGITKAFKQLPVMPAFSFIRDYHDHPMYIEALAHSVRQYWEEHGKGDYLLCSYHGIPKRYADNGDIYPQHCEATTRLLGEALGLSSDQIGMAYQSRFGREEWLQPYTDKTLETITSKGVKKIDIMTPAFSSDCLETLEEIAGENKEIFMEAGGEQFHYIPCLNDDDMHIDMMAELVRSKL	not soluble
MGSDKIHHHHHHMAFCNNANLLNVFVRHIANNQLRSLAEVATVAHQLKLLKDDFFASDQQAVAVADRYPQDVFAEHTHDFCELVIVWRGNGLHVLNDRPYRITRGDLFYIHADDKHSYASVNDLVLQNIIYCPERLKLNLDWQGAIPGFNASAGQPHWRLGSMGMAQARQVIGQLEHESSQHVPFANEMAELLFGQLVMLLNRHRYTSDSLPPTSSETLLDKLITRLAASLKSPFALDKFCDEASCSERVLRQQFRQQTGMTINQYLRQVRVCHAQYLLQHSRLLISDISTECGFEDSNYFSVVFTRETGMTPSQWRHLNSQKD	not soluble
QNEEEADRIGIQVLQRSGFDPQAMPMFMGKLLDESRYSTRPPEMLLTHPLPESRLADARNRANQMRPVVVQSSADFYLAKARTLGMYTNGDNKLGTDLLNAWDKGNIRQQHAAQYGRALLAMESNNFDQARKTLQPLLNADPQNAWYLDLATDIDLGQKKTSDAINRLKNARELRTNPVLQLNLANALLQGGQPGEAATILNRYTFTYKEDGNGWDLLAQAEGALGNRDQELAARAESMALVGQLEQA	not soluble
MAYFMTDVTKENRQDECRFSPNKEATEEDLLRIGVECTKVNFDDEHVQEDLDRLIKKYDMNFHDEVHICRATMPNFDEKLDIFFEEHLHDDAELRVIKHGVGFFDVRTKDEAWIRIPVRRGDFVFLPAGIYHRFTTDPSEDVVALRLFRNNPKWTAFNRKADGDEQRVRQQYLNDISA	soluble
VKKNGLGEIKSIYIDDNVSGSGFERRGIYELKRDVMEGKINLLVLKDLSRLGRNNAKTLLFLDFLEENGVRVVTFDGRYDSLKDNDIVGIETWFNERYILDISRKIRANLRFKIQKGEYIGHAPFGYEKSPYEKNRLIVNEEEAGIVRRIYSLYKEGYGYSYIAGILNSEGVKSPSNGRWNPTAIRRILLNRVYTGDTVQGVSEKISFKSKKTRRLPKERWVITENTHEPIVSKEEYEEIQRIRNNKNARPVPHKGIIHVFRGSIFCGGCGSVMFARKRHNRPMSYICSSYAKEGRTACTSHSIREKDLCEVVLDDVAKLLDDENMVNKILQKIDLAGAAEDYQTLREKLLKQMEAKQKQQEILYQDRLENKISESLFLRMNNRLENRISEIKREIAQLDLRKSEFVTSEEKIAKLKNYITNNGITNEIVKIVINRIIVFDKGDNYLEEKWNLNLSQKEKRYIELYGAVLIEYGF	soluble
MGSDKIHHHHHHMKQIYLLLLCGVLFACKKKESLPEVQKIGHSGMGLYGDYPINSFESLMQAFLLGADGVEIDVQMTRDGILVLLHDELLDNQTNGTGAVQERTWDEISNLAYDNIALGRYNIIRLDFLLENCGPHIDKLFYFDIKPNAYSTEHLYTLNRNLSTLITKFNLEDNSVLMYQNNAQFLHMLSLRTDLTIYSYSDFNTAKKNILQYKLNGWVASINDIDESKVAQMHEIGARVVGFSTFNKNDHLNLIHKGVDIIQTDNLKNLINLYQ	not soluble
MNEKVFRDPVHNYIHVNNQIIYDLINTKEFQRLRRIKQLGTSSYTFHGGEHS	soluble
MEKQEEEDVKRRQRQKAATSLGFLHWEELKNHGDLSKVALNIALTTLVDDASTGFCIMNLVNLIVLRESSQGYLLTYEGKLASLASATYVKAFISLWVLEDAERHAWSFRTFSLTFPLDDPILDTFLELTGVTEAGEFVYAPTTLQSPFHALYFDPQRNSFRRVIYEGLADDEFRRRNRLGYERHHILPNHIESLISL	soluble
MGSDKIHHHHHHMKYEIVLKGSYALLKVFLSTGESVVVEPGAMVYMKGPIEVKTSATGGVWKALKRAILGGENFFMNTYISRGESEIGLAPQLPGDIDVIPLKDILYVQSTSFLACDPSVEMDVSFGGLKSFFSGEGIFLLKFIGHGDVAVSSFGGIKSVELQPGEEFTVDTGHVVAFDGTVKWNVRTFGGLKSTLFGGEGLVCTFTGPGRVYIQTRNYPAFVEWIKSLVPRQTGSR	not soluble
MTGFSISMDLAPKQSRSDRSTHEGTVEQRLKFFMQDVTGRALVMMESATQGQHGIAMDLVQEAFIALHKSYADKATDEWYPLFYTILNNKLQDWRRKEARRSNPFSFFKKVSLDSDEEVTDVVDETTPNPFEFLDQAVTIEEIQAAIAQLPVRQQQAFMLRAWEGFDTQTTAQIMNCSEGSVKTHYHRAIQGLRASLAHLNPSLGGSSDESR	not soluble
MAPSTPLLTVRGSEGLYMVNGPPHFTESTVFPRESGKNCKVCIFSKDGTLFAWGNGEKVNIISVTNKGLLHSFDLLKAVCLEFSPKNTVLATWQPYTTSKDGTAGIPNLQLYDVKTGTCLKSFIQKKMQNWCPSWSEDETLCARNVNNEVHFFENNNFNTIANKLHLQKINDFVLSPGPQPYKVAVYVPGSKGAPSFVRLYQYPNFAGPHAALANKSFFKADKVTMLWNKKATAVLVIASTDVDKTGASYYGEQTLHYIATNGESAVVQLPKNGPIYDVVWNSSSTEFCAVYGFMPAKATIFNLKCDPVFDFGTGPRNAAYYSPHGHILVLAGFGNLRGQMEVWDVKNYKLISKPVASDSTYFAWCPDGEHILTATCAPRLRVNNGYKIWHYTGSILHKYDVPSNAELWQVSWQPFLDGIFPAKTITYQAVPSEVPNEEPKVATAYRPPALRNKPITNSKLHEEEPPQNMKPQSGNDKPLSKTALKNQRKHEAKKAAKQEARSDKSPDLAPTPAPQSTPRNTVSQSISGDPEIDKKIKNLKKKLKAIEQLKEQAATGKQLEKNQLEKIQKETALLQELEDLKLGI	soluble
VLEQAVYNARVMDIRDIEKESQEQAPEVEMVSELGSDVVVLDIRSAEEEDEKPLELDGVEVTHIPFFKLATKFGDLDQSKEYLLYCERGVMSRLQALLLIENGYKNVKVYRP	not soluble
MASRGKTETSKLKQNLEEQLDRLMQQLQDLEECREELDTDEYEETKKETLEQLSEFNDSLKKIMSGNMTLVDELSGMQLAIQAAISQAFKTPEVIRLFAKKQPGQLRTRLAEMDRDLMVGKLERDLYTQQKVEILTALRKLGEKLTADDEAFLSANAGAILSQFEKVSTDLGSGDKILALASFEVEKTKK	not soluble
MNILQEPIDFLKKEELKNIDLSQMSKKERYKIWKRIPKCELHCHLDLCFSADFFVSCIRKYNLQPNLSDEEVLDYYLFAKGGKSLGEFVEKAIKVADIFHDYEVIEDLAKHAVFNKYKEGVVLMEFRYSPTFVAFKYNLDIELIHQAIVKGIKEVVELLDHKIHVALMCIGDTGHEAANIKASADFCLKHKADFVGFDHGGHEVDLKEYKEIFDYVRESGVPLSVHAGEDVTLPNLNTLYSAIQVLKVERIGHGIRVAESQELIDMVKEKNILLEVCPISNVLLKNAKSMDTHPIRQLYDAGVKVSVNSDDPGMFLTNINDDYEELYTHLNFTLEDFMKMNEWALEKSFMDSNIKDKIKNLYFKGEFEAYV	soluble
MGSSHHHHHHSSGRENLYFQGHMVIIDNKHYLFIQKLGEGGFSYVDLVEGLHDGHFYALKRILCHEQQDREEAQREADMHRLFNHPNILRLVAYCLRERGAKHEAWLLLPFFKRGTLWNEIERLKDKGNFLTEDQILWLLLGICRGLEAIHAKGYAHRDLKPTNILLGDEGQPVLMDLGSMNQACIHVEGSRQALTLQDWAAQRCTISYRAPELFSVQSHCVIDERTDVWSLGCVLYAMMFGEGPYDMVFQKGDSVALAVQNQLSIPQSPRHSSALWQLLNSMMTVDPHQRPHIPLLLSQLEALQPPAPGQHTTQIL	soluble
MGHHHHHHSHMSTKVPIYLKRGSRKGKKEKLRDLLSSDMISPPLGDFRHTIHIGSGGGSDMFGDISFLQGKFHLLPGTMVEGPEEDGTFDLPFQFTRTATVCGRELPDGPSPLLKNAISLPVIGGPQALTLPTAQAPPKPPRLHLETPQPSPQEGGSVDIWRIPETGSPNSGLTPESGAEEPFLSSASSLLSLHVDLGPSILDDVLQIMDQDLDSMQIPT	soluble
MSLSMEFDAVIIGGGVSGCATFYTLSEYSSLKRVAIVEKCSKLAQISSSAKANSQTIHDGSIETNYTPEKAKKVRLSAYKTRQYALNKGLQNEVIFETQKMAIGVGDEECEFMKKRYESFKEIFVGLEEFDKQKIKELEPNVILGANGIDRHENIIGHGYRKDWSTMNFAKLSENFVEEALKLKPNNQVFLNFKVKKIEKRNDTYAVISEDAEEVYAKFVLVNAGSYALPLAQSMGYGLDLGCLPVAGSFYFVPDLLRGKVYTVQNPKLPFAAVHGDPDAVIKGKTRIGPTALTMPKLERNKCWLKGISLELLKMDLNKDVFKIAFDLMSDKEIRNYVFKNMVFELPIIGKRKFLKDAQKIIPSLSLEDLEYAHGFGEVRPQVLDRTKRKLELGEKKICEGHHHHHH	not soluble
GPLGSLVNVIRRESGNPDLLELLMDLNCYTLEVTEGYLKKVNVTEVNGDNVLGPIHVITTVVSSLVRNGLLIQSSKFISKVLLTVESIVMSLPKDETMLGGIFWLSNLSRLPAFAANQKTLYEANGGDEKDKLTLIYLNDLENETLKVFDKIYSTWLVKFMKHASAHIEIFDMVLNEKLFKNSGDEKFAKLFTFLNEFDAVLCKFQVVDSMHTKIFNDTLKYLNVMLFNDLITKCPALNWKYGYEVDRNIERLVSWFEPRIEDVRPNLIQIIQAVKILQLKISNLNEFKLLFDFWYALNPAQIQAILLKYKPANKGEAGVPNEILNYLANVIKRENLSLPGKMEIMLSAQFDSAKNHLRYDTSAITQNSNTEGLATVSKIIKLDRK	soluble
